Data set [1] concerns the target T1, GCK (Homo sapiens, UniProt P35557).
T1 construct: hexahistidine (N); made in house; host or cells: glucokinase auxotroph BM5340(DE3)
T1 sequence (P35557 1-465): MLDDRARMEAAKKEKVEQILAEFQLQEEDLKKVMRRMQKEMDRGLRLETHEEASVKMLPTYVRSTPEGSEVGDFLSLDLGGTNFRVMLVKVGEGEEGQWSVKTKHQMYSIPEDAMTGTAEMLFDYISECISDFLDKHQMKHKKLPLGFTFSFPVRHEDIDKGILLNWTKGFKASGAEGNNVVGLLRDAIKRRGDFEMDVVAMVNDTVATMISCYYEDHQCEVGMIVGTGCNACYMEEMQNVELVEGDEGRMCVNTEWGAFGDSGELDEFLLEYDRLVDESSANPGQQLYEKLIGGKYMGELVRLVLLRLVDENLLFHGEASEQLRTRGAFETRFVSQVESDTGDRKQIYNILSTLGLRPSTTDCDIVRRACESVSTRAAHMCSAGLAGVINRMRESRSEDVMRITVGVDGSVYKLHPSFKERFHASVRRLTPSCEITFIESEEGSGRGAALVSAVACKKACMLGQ
Kind of data set: Fluorescence polarization, binding of fluorescent BH3 peptides to GCK. The following applies: phosphorylation at position of Ser-118; trifluoroethanol 20–40%; S1 Fig: 34 μM f-pBH3, 40% trifluoroethanol. The procedure: (§1) Recombinant human pancreatic GCK containing an N-terminal hexahistidine tag was produced in the glucokinase auxotroph BM5340(DE3) and purified using a previously described procedure. TEV protease was expressed as a GST-fusion protein from a pGEX plasmid encoding the S219V variant, provided by David Waugh (Addgene plasmid 8827). Expression was induced with IPTG (1 mM) for 4 h at 30°C. Cell pellets were resuspended in Tris buffer (50 mM, pH 8.0) containing NaCl (100 mM), glycerol (10% v/v), benzamidine (1 mM) and dithiothreitol (10 mM) and lysed via French Press. Polyethyleneimine (0.1%) was added to the lysate and protein was purified on a glutathione-affinity column (GSTrap, GE Sciences). TEV protease was flash frozen and stored at -80°C for up to 1 month.
A fluorescence polarization assay developed by Zhang, et al. was utilized to measure interactions between BAD and its binding partners. Two 21-residue FITC-labeled peptides containing the BH3 domain of BAD were synthesized and purified to >95% by Peptide2.0 (f-BH3 = NLWAAQRYGRELRRMSDK(FITC)FVD; f-pBH3 = NLWAAQRYGRELRRM(p)SDK(FITC) FVD). Polarization was measured at room temperature with an excitation wavelength of 485 nm and an emission wavelength of 530 nm using a SpectraMax M5 microplate reader (Molecular Devices). […]
(In general: Polarisation of emitted light reports the rotation of a fluorescent probe.)

For a further data set, the target named is T2, Bcl-xL (Homo sapiens, UniProt Q07817, DEL45-84).
T2 construct: made in house
T2 sequence (Q07817 with tags, fused parts or gaps DEL45-84): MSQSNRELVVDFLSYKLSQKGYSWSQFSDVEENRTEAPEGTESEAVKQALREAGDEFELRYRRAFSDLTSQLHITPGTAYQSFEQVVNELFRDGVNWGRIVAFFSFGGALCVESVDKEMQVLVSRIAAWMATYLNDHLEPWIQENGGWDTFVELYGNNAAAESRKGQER
The data set can be described thus: Fluorescence polarization competition with f-BH3 for binding to Bcl-xL. The settings on record: 200 nM f-BH3, 50 nM Bcl-xL, competitor 0–50 μM, room temperature, 15 min. Here is the method:
Exon 1 of human bcl-xl lacking the C-terminal residues 189–233 was obtained from Stanley Korsmeyer (Addgene plasmid 8755) and site-directed mutagenesis was performed to create the Δ45–84, Δ210–233 variant. Bcl-xL was expressed and purified using a modified procedure described previously. Briefly, Bcl-xL was purified by nickel affinity chromatography and dialyzed against potassium phosphate buffer (20 mM, pH 7.4) containing NaCl (50 mM), EDTA (1 mM), and DTT (10 mM). Protein was applied to a Superdex 200 10/30 HR size-exclusion column, at a flow rate of 0.02 mL/min, to remove aggregate and oligomers prior to binding assays.
A fluorescence polarization assay developed by Zhang, et al. was utilized to measure interactions between BAD and its binding partners. Two 21-residue FITC-labeled peptides containing the BH3 domain of BAD were synthesized and purified to >95% by Peptide2.0 (f-BH3 = NLWAAQRYGRELRRMSDK(FITC)FVD; f-pBH3 = NLWAAQRYGRELRRM(p)SDK(FITC) FVD). Polarization was measured at room temperature with an excitation wavelength of 485 nm and an emission wavelength of 530 nm using a SpectraMax M5 microplate reader (Molecular Devices). Experiments to measure binding constants of the fluorescent peptides to Bcl-xL or GCK were performed in black 96-well plates. Each well contained 15 nM peptide, 60 μL BAD buffer (0.1 M Tris, 0.1 M KCl, 0.5 M arginine, 2.5 mM CHAPS, 5 mM TCEP, 10% glycerol, pH 8.5) and variable concentrations of Bcl-xL (0–2.25 μM) or GCK (0–400 μM) in assay buffer (20 mM phosphate buffer, pH 7.4, 1 mM EDTA, 50 mM NaCl, 10 mM DTT) in a final volume of 120 μL. High GCK concentrations were chosen in an effort to detect a signal indicating a binding event. Assays containing GCK also contained 250 mM glucose. […] Plates were incubated at room temperature in the dark for 15 min prior to polarization measurements.

The target in the next data set is T3, human pancreatic GCK (Homo sapiens, UniProt P35557).
T3 construct: hexahistidine (N); made in house; host or cells: glucokinase auxotroph BM5340(DE3)
T3 sequence (P35557 1-465): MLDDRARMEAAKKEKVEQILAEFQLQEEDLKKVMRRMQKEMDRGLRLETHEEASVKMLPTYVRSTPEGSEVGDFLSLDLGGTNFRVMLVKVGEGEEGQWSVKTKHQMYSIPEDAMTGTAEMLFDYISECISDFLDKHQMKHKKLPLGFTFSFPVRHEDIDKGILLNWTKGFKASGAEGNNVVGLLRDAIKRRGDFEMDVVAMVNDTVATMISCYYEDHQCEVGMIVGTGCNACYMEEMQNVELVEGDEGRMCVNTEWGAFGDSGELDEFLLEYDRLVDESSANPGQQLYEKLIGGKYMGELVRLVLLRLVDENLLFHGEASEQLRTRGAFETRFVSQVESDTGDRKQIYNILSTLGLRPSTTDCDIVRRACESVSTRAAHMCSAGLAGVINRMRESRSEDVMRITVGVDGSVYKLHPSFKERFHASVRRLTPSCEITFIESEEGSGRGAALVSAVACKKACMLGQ
The data set can be described thus: GCK activity, G6PDH-linked assay (lab's routine assay, 25°C). Format: biochemical. The settings on record: 0.5, 0.78 and 1.0 mM glucose; data not shown. The procedure: as §1
GCK activity was assayed using a glucose 6-phosphate dehydrogenase (G6PDH)-linked assay at 25°C. 50 nM GCK was assayed in buffer containing HEPES (100 mM, pH 7.4), KCl (50 mM), NADP^+ (0.5 mM), DTT (10 mM), MgCl2 (7 mM), G6PDH (1.5 U) and glucose (0–100 mM) in a total volume of […]. Addition of ATP (6 mM) initiated the reaction. Production of NADPH was measured at 340 nm. To determine the effect of BAD on GCK activity, 5 μL of BAD or buffer control was added to the reaction in a final volume of 100 μL. K0.5 values were determined by fitting to the Hill equation. The effect of BAD on GCK activity is reported as the percent rate increase at individual glucose concentrations, calculated as the average of a minimum of four rates of BAD-containing assays divided by the average of rates of BAD buffer-containing assays. The results represent the average of at least three independent preparations of pure BAD.

A short description of data set [2]: Circular dichroism spectroscopy (secondary structure). Format: physicochemical. The following applies: relative to (unmodified) BAD-GST, 25°C, pH 7.8. Here is the method:
Proteins were dialyzed overnight into potassium phosphate buffer (50 mM, pH 7.8) containing KCl (50 mM), glycerol (5% v/v), and TCEP (4 mM). CD spectra were recorded on an AVIV 202 CD spectrometer at 25°C with protein concentrations ranging from 3–15 μM. Spectra were recorded from 200–260 nm in 10 mm pathlength cuvettes using a 1 nm step resolution and 3 s integration time. Three scans were recorded per sample, averaged, and baseline subtracted with appropriate buffer controls. CD signals were converted to molar ellipticity and deconvoluted using CDPro Software.

The next data set deals with BAD-deficient islets. The following applies: ref [8]; cited from earlier work. The source says:
The mitochondrial complex fails to form in the absence of BAD, resulting in reduced glucose-driven oxygen consumption and impaired GSIS in β-cells. […] In hepatocytes, BAD deficiency results in insulin resis ...

Data set [3] has as its system GCK. The following applies: rabbit reticulocyte lysates; ref [8]; cited from earlier work. The source says:
Several lines of evidence support a direct interaction between GCK and BAD. […] Kinetic assays re ... || The first indication of a putative interaction between full-length BAD and GCK came from the observation that both proteins co-localize with one another in a macromolecular complex purified from mouse hepatocyte mitochondrial extracts. […] In contrast to these experiments, our study utilizes active, highly purified homogeneous preparations of both proteins. The biochemical and biophysical e ...

Consider two molecules from PMC5300155, “Biochemical and biophysical investigations of the interaction between human glucokinase and pro-apoptotic BAD” (PLoS ONE, 2017).

“Also recorded” adds a separate entry of the source.

For the molecule “NLWAAQRYGRELRRM(p)SDK(FITC) FVD [f-pBH3, 21-residue FITC-labeled phosphorylated peptide containing the BH3 domain of BAD]”, the “Binding to GCK, phosphorylated fluorescent peptide / trifluoroethanol” value on GCK [1] is “does not affect f-pBH3 binding to GCK”.

B1: BAD: BAD following cleavage and removal of the GST tag (protein)
chain: MFQIPEFEPSEQEDSSSAERGLGPSPAGDGPSGSGKHHRQAPGLLWDASHQQEQPTSSSHHGGAGAVEIRSRHSSYPAGTEDDEGMGEEPSPFRGRSRSAPPNLWAAQRYGRELRRMSDEFVDSFKKGLPRPKSAGTATQMRQSSSWTRVFQSWWDRNLGRGSSAPSQ
modifications: left off: His6, N-terminal, state not stated | GST, C-terminal, kept
Take B1: in the data set with Bcl-xL, the IC50 – broadly, the concentration that gives 50% inhibition – was found to be 440 nM. For the same molecule, the “Increase in GCK activity, GST tag removed” value with human pancreatic GCK is given as 7–12%. Besides, the “CD comparison (in words)” value in data set [2] is on record as “nearly identical”. Besides, in the data set with BAD-deficient islets, the “Effect on impaired insulin response or GSIS of BAD-deficient islets” value is “restores GSIS”. Besides, the “Coimmunoprecipitation with GCK” value with GCK [3] was “co-immunoprecipitates with GCK; also recorded: can coimmunoprecipitate with GCK”.
